Test results as given in patent US20250000991A1 (Eli Lilly, published 2025).
Changes are numbered by the printed parent chain.

B1: Ab1a (antibody, human IgG1, kappa, L234A L235A, V domains shown)
VH: QVQLVQSGAQVKKPGASVKVSCKASGYTFTGYYIHWVRQAPGQGLEWMGWINPNSGGTNYAQKFQGRVTMTRDTSISTAYMELSRLRSDDTAVYFCAREDWDFDYWGQGTLVTVSS
VL: EIVLTQSPGTLSLSPGERATLSCRTSQSVSSSYLAWYQQKPGQAPRLLIYGASNRATDIPDRFSGSGSGTDFTLTINRLEPEDFAVYYCQQYGSSPITFGQGTRLEIKR
notes: Unconjugated antibody; also called nectin-4 antibody Ab1a
B2: Ab3 (antibody, human IgG1, kappa, L234A L235A, V domains shown)
VH: EVQLVESGGGLVKPGGSLRLSCAASGFNLNHYNMNWVRQAPGKGLEWVSSVSSGGGFRYYADSVRGRFTISRDNAKNSLYLQMNSLRAEDTAVYYCARGAVFHDAFDIWGQGTLVTVSS
VL: DIQLTQSPSFLSASVGDRVTITCRASQDISSYLAWYQQKPGKAPKLLIYVASTLQSGVPSRFSGSGSGTEFTLTISSLQPEDFATYYCQQINSYPFTFGQGTKVEIKR
notes: Unconjugated antibody; also called Antibody 3; nectin-4 antibody Ab3
B3: Ab4 (antibody, human IgG1, kappa, L234A L235A, V domains shown)
VH: QVQLQESGPGLVKPSETLSLTCTVSGGSISGYYWSWIRQPPGKGLEWIGYIYYSGSTNYNPSLKSRVTISVDTSKNQFSLKLSSVTAADTAVYYCARLGIFFDAFDIWGQGTLVTVSS
VL: B2 VL with D28G, V50A, I91F, F96W
notes: Unconjugated antibody; also called Antibody 4
B4: Ab5 (antibody, human IgG1, kappa, L234A L235A, V domains shown)
VH: QVQLVQSGAEVKKPGASVKVSCKASGYTFTSYYVHWVRQAPGQGLEWMGIINPSIISTSYAQKFQARVTMTRDTSTSTVYMELSSLRSEDTAVYYCARGLNFDAFDIWGQGTLVTVSS
VL: B2 VL with D28G, V50A, I91L, S93N
notes: Unconjugated antibody; also called Antibody 5; nectin-4 antibody Ab5
B5: Ab7 (antibody, human IgG1, lambda, L234A L235A, V domains shown)
VH: QVQLVQSGAEVKKPGASVKVSCKASGYTFTNYYMHWVRQAPGQGLEWMGIINPSSGSASYAQKFQGRVTMTRDTSTSTVYMELSSLRSEDTAVYYCAREGVGRDILQAFDIWGQGTLVTVSS
VL: QSVLTQPPSVSEAPRQRVTISCSGSSSNIGNNAVNWYQQLPGKAPKLLIYYDDLLPSGVSDRFSGSKSGTSASLAISGLQSEDEADYYCAAWDDSLNGHVFGGGTKLTVLG
notes: Unconjugated antibody; also called Antibody 7; nectin-4 antibody Ab7
B6: Ab8 (antibody, human IgG1, lambda, L234A L235A, V domains shown)
VH: QVQLVQSGAEVKKPGASVKVSCKASGYTFTSYYIHWVRQAPGQGLEWMGIINPISGRTSSAQKFQGRVTMTRDTSTSTVYMELSSLRSEDTAVYYCAKEGVGGELLRAFDIWGQGTLVTVSS
VL: B5 VL with H99F
notes: Unconjugated antibody; also called Antibody 8; nectin-4 antibody Ab8
B7: Ab6 (antibody, human IgG1, lambda, L234A L235A, V domains shown)
VH: QVQLVQSGAEVKKPGASVKVSCKASGYTFTGYYMHWVRQAPGQGLEWMGIINPSGGSTTYAQKFQGRVTMTRDTSTSTVYMELSSLRSEDTAVYYCARGRLGTYFDYWGQGTLVTVSS
VL: SYVLTQPPSVSVAPGQTARITCGGNNIGSKSVHWYQQKPGQAPVLVVYDDSDRPSGIPERFSGSNSGNTATLTISRVEAGDEADYYCQVWDRSSDQVVFGGGTKLTVLG
notes: Unconjugated antibody; also called Antibody 6; nectin-4 antibody Ab6
B8: Ab4 ADC (Ab4 conjugated as in Formula XI, DAR of 8) (antibody, human IgG1, kappa, L234A L235A, V domains shown)
VH: B3 VH
VL: B2 VL with D28G, V50A, I91F, F96W
modifications: camptothecin analog linker-payload of Formula XI on cysteine thiols after full reduction, DAR of 8 per antibody; positions not given
notes: Antibody-drug conjugate of Ab4; also called Ab4 (ADC column)
B9: Ab6 ADC (Ab6 conjugated as in Formula XI, DAR of 8) (antibody, human IgG1, lambda, L234A L235A, V domains shown)
VH: B7 VH
VL: B7 VL
modifications: camptothecin analog linker-payload of Formula XI on cysteine thiols after full reduction, DAR of 8 per antibody; positions not given
notes: Antibody-drug conjugate of Ab6; also called Ab6 (ADC column)

Molecular target: T1, human nectin-4 on cells (human, UniProt Q96NY8 32-510)
T1 construct: also called Nectin-4 receptor
T1 sequence: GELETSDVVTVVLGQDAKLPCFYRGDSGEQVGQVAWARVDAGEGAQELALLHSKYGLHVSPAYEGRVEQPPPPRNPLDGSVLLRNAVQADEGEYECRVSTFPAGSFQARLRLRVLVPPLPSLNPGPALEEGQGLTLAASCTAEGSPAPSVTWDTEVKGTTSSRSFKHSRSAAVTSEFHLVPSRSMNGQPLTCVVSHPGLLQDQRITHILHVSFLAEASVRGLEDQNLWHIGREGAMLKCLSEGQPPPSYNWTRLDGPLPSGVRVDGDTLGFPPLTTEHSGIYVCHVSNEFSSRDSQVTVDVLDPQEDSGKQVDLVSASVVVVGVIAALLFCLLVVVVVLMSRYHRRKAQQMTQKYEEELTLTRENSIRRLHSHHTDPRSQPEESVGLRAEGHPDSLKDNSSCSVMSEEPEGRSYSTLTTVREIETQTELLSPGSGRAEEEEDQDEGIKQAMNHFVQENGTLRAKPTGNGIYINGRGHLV
Assay: flow cytometry, SUM190PT cells (high endogenous nectin-4)

Row | Binder | % of enfortumab (Average Max MFI) | Average Max MFI | EC50
1 | B1 | 55.6% | 590000 MFI | 0.12 nM
2 | B2 | 112% | 1.2e+06 MFI | 0.23 nM
3 | B3 | 97.9% | 1e+06 MFI | 0.19 nM
4 | B4 | 145% | 1.5e+06 MFI | 0.31 nM
5 | B5 | 112% | 1.2e+06 MFI | 0.14 nM
6 | B6 | 81.9% | 8.7e+06 MFI | 0.11 nM
7 | B7 | 127% | 1.3e+06 MFI | 0.17 nM

Molecular target: T2, recombinant HIS-tagged human nectin-4 (Acro Biosystems Cat. No. NE4-H52H3) (human, UniProt Q96NY8 32-349)
T2 construct: Bought protein; not shown: HIS tag
T2 sequence: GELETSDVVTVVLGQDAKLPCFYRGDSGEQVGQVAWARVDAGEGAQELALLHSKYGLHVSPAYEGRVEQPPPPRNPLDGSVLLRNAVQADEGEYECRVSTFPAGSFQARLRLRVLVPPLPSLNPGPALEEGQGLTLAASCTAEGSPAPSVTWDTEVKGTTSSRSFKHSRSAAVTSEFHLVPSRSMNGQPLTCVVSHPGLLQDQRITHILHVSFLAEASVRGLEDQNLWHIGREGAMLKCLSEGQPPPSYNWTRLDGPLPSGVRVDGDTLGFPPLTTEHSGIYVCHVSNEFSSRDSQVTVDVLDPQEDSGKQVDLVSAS
Assay: SPR Biacore 8K+, ADC captured via anti-human Fc, nectin-4 analyte, 37 C;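 also: Nectin-4 injected over captured ADC at 0 to 600 nM for 2 min association, then 10 min dissociation, with a reference flow cell lacking ADC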

Row | Binder | Kd | koff | kon
8 | B8 | 204 nM |  | 
9 | B9 | 91.8 nM | 0.163 s⁻¹ | 1.78e+06 M⁻¹ s⁻¹

Molecular target: T3, recombinant HIS-tagged rat nectin-4 (R&D Systems Cat. No. 9997-N4-050) (rat, UniProt D3ZET1 31-348)
T3 construct: Bought protein; HIS tag not described
T3 sequence: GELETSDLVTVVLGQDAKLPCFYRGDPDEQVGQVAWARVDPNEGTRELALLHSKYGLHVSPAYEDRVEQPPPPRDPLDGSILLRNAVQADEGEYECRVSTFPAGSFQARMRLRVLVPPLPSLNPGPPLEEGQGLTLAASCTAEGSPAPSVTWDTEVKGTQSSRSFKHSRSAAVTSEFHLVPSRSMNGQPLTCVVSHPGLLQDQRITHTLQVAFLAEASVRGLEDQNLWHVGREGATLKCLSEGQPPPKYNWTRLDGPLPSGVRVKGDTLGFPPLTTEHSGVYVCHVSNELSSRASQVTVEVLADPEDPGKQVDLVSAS
Assay: as above

Row | Binder | Kd | koff | kon
10 | B9 | 114 nM | 0.105 s⁻¹ | 925000 M⁻¹ s⁻¹

Molecular target: T4, human Nectin-4-eGFP on T24 cells (clone 3) (human, UniProt Q96NY8 32-510)
T4 sequence: T1 sequence
Assay: cell-based or functional assay

Row | Binder | % activity (max GFP signal loss compared to enfortumab mAb (100%)) | EC50 (nM) of nectin-4-eGFP signal loss
11 | B1 | 145% | 2.54 nM
12 | B2 | 64.4% | 1.3 nM
13 | B3 | 40.9% | 0.41 nM
14 | B4 | 40.1% | 2.69 nM
15 | B8 | 143% | 2.1 nM
16 | B5 | 66.5% | 3.37 nM
17 | B6 | 53.7% | 3.68 nM
18 | B7 | 65.1% | 41.4 nM
19 | B9 | 118% | 2.26 nM

Molecular target: T1, human nectin-4 on cells
Assay: cell-based or functional assay

Row | Binder | Cytotoxicity IC50, NCI H1781 cells | Cytotoxicity IC50, T24 Nectin-4 clone 108 cells
20 | B8 | 0.311 nM | 0.115 nM
21 | B9 | 0.0608 nM | 0.0783 nM

Molecular target: T1, human nectin-4 on cells
Assay: flow cytometry, NCI-H1781 cells (low endogenous nectin-4)

Row | Binder | % of enfortumab (Average Max MFI) | Average Max MFI | EC50
22 | B1 | 84.5% | 77000 MFI | 0.2 nM
23 | B2 | 105% | 96000 MFI | 0.1 nM
24 | B3 | 95.8% | 87000 MFI | 0.14 nM
25 | B4 | 102% | 93000 MFI | 0.08 nM
26 | B5 | 96% | 87000 MFI | 0.09 nM
27 | B6 | 99.6% | 90000 MFI | 0.1 nM
28 | B7 | 93.8% | 85000 MFI | 0.03 nM
